A word on the kcat/KM: it is the turnover number divided by the Michaelis constant.

The target in assay [1] is Gln^3-Aβ(3-11)a, Gln^3-amyloid β-peptide(3-11)a (Artificial Sequence).
Assay [2] concerns the target Gln^3-Aβ(3-40), Gln^3-amyloid β-peptide(3-40) (Artificial Sequence).
The target of assay [3] is Glucagon(3-29) (Homo sapiens (Human)) (UniProt P01275).
In assay [4] the target is Gln^3-Aβ(3-21)a, Gln^3-amyloid β-peptide(3-21)a (Artificial Sequence).

On to “recombinant human QC (glutaminyl cyclase) (from UniProt Q16769) (enzyme)”, for which the kcat/KM is 267000 M⁻¹ s⁻¹ in assay [1], 449000 M⁻¹ s⁻¹ in assay [2], 526000 M⁻¹ s⁻¹ in assay [3] and 383000 M⁻¹ s⁻¹ in assay [4].

Values taken from US20100159032A1.
